Results published in PMC5512577 (Nature Communications, 2016).
Ends that are not written are not given here. * marks the point of attachment. FITC = O=C1OC2(c3ccc(O)cc3Oc3cc(O)ccc32)c2ccc(NC(=S)*)cc21; Farnesyl = CC(C)=CCC/C(C)=C/CC/C(C)=C/C*; Far = not defined here

B1: TAMRA-labelled farnesylated and carboxy-methylated C-terminal peptide of INPP5E (residues 637-644) (peptide)
peptide: SQNSSTIC(Farnesyl)-OMe
modifications: also: TAMRA label, position not given here
notes: C-terminal peptide of inositol polyphosphate 5'-phosphatase E (INPP5E), printed as residues 637-644 with the farnesylated Cys644; also called INPP5E peptide; TAMRA-labelled INPP5E peptide; source: synthetic peptide, bought: JPT
B2: FITC-labelled farnesylated and carboxy-methylated C-terminal peptide of Rheb (residues 175-181) (peptide)
peptide: {FITC}-SQGKSSC(Far)-OMe
modifications: reading uncertain
notes: also called Rheb peptide; Fluorescein-SQGKSSC(Far)-OMe; source: synthetic peptide, bought: JPT
B3: phosphodiesterase 6 delta subunit (PDE6δ), N-terminal histidine-tagged (natural protein)
chain: MSAKDERAREILRGFKLNWMNLRDAETGKILWQGTEDLSVPGVEHEARVPKKILKCKAVSRELNFSSTEQMEKFRLEQKVYFKGQCLEEWFFEFGFVIPNSTNTWQSLIEAAPESQMMPASVLTGNVIIETKFFDDDLLVSTSRVRLFYV
notes: PDE6δ, the delta subunit of phosphodiesterase 6; the PDE6δ of PDB 3T5G was the search model for the structure solved here (5F2U); also called PrBP/PDE6δ; source: E. coli BL21-CodonPlus(DE3)-RIL, purified (Ni-NTA, gel filtration)
B4: Rheb(SI) peptide (K178S/S180I), farnesylated and carboxy-methylated (peptide)
peptide: SQGSSIC(Far)-OMe
modifications: reading uncertain
notes: C-terminal peptide of Rheb with the -1 and -3 residues swapped to those of INPP5E; Unlabelled; also called SQGSSIC(Far)-OMe; source: synthetic peptide, bought: CambridgePeptides
B5: full-length Arl2, C-terminal histidine-tagged, bound to GppNHp or mantGppNHp (natural protein, UniProt Q9D0J4 1-184, looked up)
chain: MGLLTILKKMKQKERELRLLMLGLDNAGKTTILKKFNGEDVDTISPTLGFNIKTLEHRGFKLNIWDVGGQKSLRSYWRNYFESTDGLIWVVDSADRQRMQDCQRELQSLLVEERLAGATLLIFANKQDLPGALSCNAIQEALELDSIRSHHWRIQGCSAVTGEDLLPGIDWLLDDISSRVFTAD
notes: Loaded with GppNHp (release assays) or mantGppNHp (kinetics with PDE6δ); Species surmised as mouse from earlier work of the same laboratory; the human protein is P36404; also called Arl2^fl; Arl2·GppNHp; source: E. coli BL21-CodonPlus(DE3)-RIL, purified (Ni-NTA, gel filtration)

What was measured:
Settings in all cases: both partners purified
[1] = molecular target: B3; assay: fluorescence polarisation; 0.01 μM TAMRA-labelled INPP5E peptide or 0.5 μM FITC-labelled Rheb peptide titrated with increasing PDE6δ; 20 °C; 25 mM Tris-HCl pH 7.5, 50 mM NaCl, 3 mM DTE; quadratic fit
[2] = molecular target: B3; assay: fluorescence polarisation; stopped flow; complex of 1 μM PDE6δ with 0.2 μM labelled peptide mixed with 100-fold excess of unlabelled peptide, no Arl protein; 20 °C
[3] = molecular target: T1, N-terminally truncated Arl2 (aa 17-178), bound to mantGppNHp (UniProt Q9D0J4 17-178); assay: fluorescence polarisation; stopped flow; kon: 0.2 μM mantGppNHp-loaded Arl protein with increasing PDE6δ; koff: 2 μM PDE6δ with 0.2 μM mantGppNHp-loaded Arl protein mixed with 200-fold excess of unlabelled Arl protein; Kd=koff/kon; 20 °C
T1 construct: Arl2 residues 17-178; Species surmised as mouse from earlier work of the same laboratory; also called Arl2^ΔN; source: E. coli BL21-CodonPlus(DE3)-RIL, purified (GSH column, tag cleaved, gel filtration); not shown: GST, N-terminal, cleaved

[4] = molecular target: B5; assay: as above
[5] = molecular target: T2, full-length Arl3, C-terminal histidine-tagged, bound to GppNHp or mantGppNHp (UniProt Q9WUL7 1-182); assay: as above
T2 construct: Loaded with the non-hydrolysable GTP analogue GppNHp (release assays) or mantGppNHp (kinetics with PDE6δ); Species surmised as mouse from earlier work of the same laboratory; the human protein is P36405; also called Arl3^fl; Arl3·GppNHp; source: E. coli BL21-CodonPlus(DE3)-RIL, purified (Ni-NTA, gel filtration)

[6] = molecular target: T3, N-terminally truncated Arl3 (aa 18-177), bound to GppNHp or mantGppNHp (UniProt Q9WUL7 18-177); assay: as above
T3 construct: Arl3 residues 18-177, without the N-terminal helix; Species surmised as mouse from earlier work of the same laboratory; also called Arl3^ΔN; source: E. coli BL21-CodonPlus(DE3)-RIL, purified (GSH column, tag cleaved, gel filtration); not shown: GST, N-terminal, cleaved

[7] = molecular target: B1; assay: fluorescence polarisation; stopped flow; complex of 1 μM PDE6δ with 0.2 μM labelled peptide mixed with 100-fold excess of unlabelled peptide and 10 μM Arl3·GppNHp; 20 °C
[8] = molecular target: B3; assay: fluorescence polarisation; competition: complex of 0.5 μM FITC-labelled Rheb peptide and 1 μM PDE6δ titrated with unlabelled mutant peptide; fitted with a competition model; 20 °C
[9] = molecular target: B3; assay: fluorescence polarisation; stopped flow; kon: 0.2 μM mantGppNHp-loaded Arl protein with increasing PDE6δ; koff: 2 μM PDE6δ with 0.2 μM mantGppNHp-loaded Arl protein mixed with 200-fold excess of unlabelled Arl protein; Kd=koff/kon; 20 °C

Binder: B1
- Kd [1]: 3.7 nM

Binder: B2
- Kd [1]: 445 nM
- koff [2]: 0.95 s⁻¹

Binder: B3
- Kd [3]: 316 nM
- Kd [4]: 149 nM
- Kd [5]: 5.8 nM
- Kd [6]: 217 nM
- fold acceleration of koff by Arl3·GppNHp against no Arl [7]: ~10000 fold

Binder: B4
- Kd [8]: 12 nM

Binder: B5
- fold difference in koff against Arl2^ΔN [9]: 3 fold
